The values below come from patent publication US20050074865A1.

Sequence of TRYPSIN (commercial protease of the screen) (enzyme) (P00760 24-246): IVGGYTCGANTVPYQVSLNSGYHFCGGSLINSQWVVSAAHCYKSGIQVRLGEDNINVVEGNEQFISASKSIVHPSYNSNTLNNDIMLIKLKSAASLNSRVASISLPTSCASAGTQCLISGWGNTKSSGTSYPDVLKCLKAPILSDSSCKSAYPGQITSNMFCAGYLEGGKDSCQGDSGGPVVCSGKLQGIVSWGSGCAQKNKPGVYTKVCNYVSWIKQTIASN
Sequence of MMP12 (enzyme) (P39900 106-470): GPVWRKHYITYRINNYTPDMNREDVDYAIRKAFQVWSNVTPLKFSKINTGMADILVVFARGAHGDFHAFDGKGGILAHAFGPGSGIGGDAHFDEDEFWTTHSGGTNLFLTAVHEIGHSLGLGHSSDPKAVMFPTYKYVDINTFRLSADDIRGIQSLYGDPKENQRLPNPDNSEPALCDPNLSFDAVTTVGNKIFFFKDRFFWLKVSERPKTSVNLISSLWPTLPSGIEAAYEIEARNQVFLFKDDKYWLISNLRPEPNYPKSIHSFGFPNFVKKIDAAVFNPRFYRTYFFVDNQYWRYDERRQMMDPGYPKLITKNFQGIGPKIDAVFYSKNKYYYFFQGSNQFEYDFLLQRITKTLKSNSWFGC

For this test, the target named is recombinant human TNFα (RDI) (human) (UniProt P01375). Put plainly: cell-based or functional assay.
Sequence of recombinant human TNFα (RDI) (human) (P01375 77-233 limits assumed): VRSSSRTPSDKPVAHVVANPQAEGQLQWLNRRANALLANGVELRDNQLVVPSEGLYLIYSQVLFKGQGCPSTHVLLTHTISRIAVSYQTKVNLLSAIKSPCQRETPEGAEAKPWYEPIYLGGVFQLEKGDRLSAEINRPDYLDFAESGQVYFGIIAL
Take CHYMOTRYPSIN (enzyme): the log reduction in TNFα activity at the 50% survival level, L929 cytotoxicity bioassay after overnight digestion stood at 2.74 log.

Take ELASTASE (enzyme): the log reduction in TNFα activity at the 50% survival level, L929 cytotoxicity bioassay after overnight digestion turned out to be 1.45 log.

For the substance MMP12 (enzyme), the log reduction in TNFα activity at the 50% survival level, L929 cytotoxicity bioassay after overnight digestion stood at 0.65 log.

Turning to MT1-MMP (enzyme), the log reduction in TNFα activity at the 50% survival level, L929 cytotoxicity bioassay after overnight digestion turned out to be 0.86 log.

With “TRYPSIN (commercial protease of the screen) (enzyme)”, the log reduction in TNFα activity at the 50% survival level, L929 cytotoxicity bioassay after overnight digestion amounted to 2.3 log.

Regarding Tryptase (enzyme), the log reduction in TNFα activity at the 50% survival level, L929 cytotoxicity bioassay after overnight digestion turned out to be 0.62 log.
